From patent publication US20200087373A1 (UNIVERSITY OF COPENHAGEN, published 2020)
Ends that are not written are not given here. * marks the point of attachment. C16 diacid = O=C(O)CCCCCCCCCCCCCCC(=O)*

Columns and labels:
human GIP receptor [1] = target: T1, human GIP receptor (human, UniProt P48546 22-466); test: 125I-hGIP(1-42) competition binding, COS-7 cells expressing human GIPR, without HSA;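 note: nonspecific binding defined as radioligand bound to cells lacking the transfected receptor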
T1 construct: whole, on cells; Transiently transfected COS-7 cells expressing the human GIP receptor; also called hGIPR
T1 sequence (looked up): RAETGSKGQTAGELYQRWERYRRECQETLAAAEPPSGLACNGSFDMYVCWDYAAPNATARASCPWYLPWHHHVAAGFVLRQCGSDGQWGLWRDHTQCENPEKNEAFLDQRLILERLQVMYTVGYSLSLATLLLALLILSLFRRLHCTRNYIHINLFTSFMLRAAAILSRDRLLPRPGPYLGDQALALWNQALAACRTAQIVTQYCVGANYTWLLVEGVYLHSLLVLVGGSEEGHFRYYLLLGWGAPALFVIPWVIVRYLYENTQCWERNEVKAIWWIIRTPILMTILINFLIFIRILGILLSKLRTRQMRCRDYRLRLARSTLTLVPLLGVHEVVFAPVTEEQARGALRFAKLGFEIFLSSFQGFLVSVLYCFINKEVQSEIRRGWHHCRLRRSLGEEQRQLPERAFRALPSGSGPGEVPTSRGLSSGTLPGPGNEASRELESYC
Method: (§1) After incubation, the cells were washed twice in ice-cold binding buffer (+/−2% HSA) and lysed using 200 mM NaOH with 1% SDS for 30 min. Nonspecific binding was determined as the binding of radioactive ligand to untransfected cells.

human GIP receptor [2] = target: T1, human GIP receptor; test: 125I-hGIP(1-42) competition binding, COS-7 cells expressing human GIPR, with 2% HSA;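 note: nonspecific signal taken as radioligand bound to untransfected cells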
Method: as §1

human GIP receptor [3] = target: T1, human GIP receptor; test: ratio of Ki with 2% HSA to Ki without HSA, 125I-hGIP competition binding on hGIPR COS-7 cells;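 note: nonspecific binding was defined as radioligand signal on cells lacking the receptor transfection, with cell lysates measured after washes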
Method: as §1

human GIP receptor [4] = target: T1, human GIP receptor; test: cell-based or functional assay

Binder	Ki (human GIP receptor [1])	Ki (human GIP receptor [2])	Fold (Ki + HSA / Ki - HSA) (human GIP receptor [3])	cAMP accumulation Fold (fold change from GIP(5-30)NH2) (human GIP receptor [4])	cAMP accumulation IC50 (human GIP receptor [4])	cAMP accumulation logIC50 (human GIP receptor [4])
TFISDYSIAMDKIHQK(C16 diacid)DFVNWLLAQK-NH2 (N-terminus assumed; SMILES CC[C@H](C)[C@H](NC(=O)[C@H](CO)NC(=O)[C@H](Cc1ccc(O)cc1)NC(=O)[C@H](CC(=O)O)NC(=O)[C@H](CO)NC(=O)[C@@H](NC(=O)[C@H](Cc1ccccc1)NC(=O)[C@@H](N)[C@@H](C)O)[C@@H](C)CC)C(=O)N[C@@H](C)C(=O)N[C@@H](CCSC)C(=O)N[C@@H](CC(=O)O)C(=O)N[C@@H](CCCCN)C(=O)N[C@H](C(=O)N[C@@H](Cc1c[nH]cn1)C(=O)N[C@@H](CCC(N)=O)C(=O)N[C@@H](CCCCNC(=O)CCCCCCCCCCCCCCC(=O)O)C(=O)N[C@@H](CC(=O)O)C(=O)N[C@@H](Cc1ccccc1)C(=O)N[C@H](C(=O)N[C@@H](CC(N)=O)C(=O)N[C@@H](Cc1c[nH]c2ccccc12)C(=O)N[C@@H](CC(C)C)C(=O)N[C@@H](CC(C)C)C(=O)N[C@@H](C)C(=O)N[C@@H](CCC(N)=O)C(=O)N[C@@H](CCCCN)C(N)=O)C(C)C)[C@@H](C)CC) [AT180 [hGIP(5-30)NH2[Q20K]-C16diacid/20]]	82.8 nM	533 nM	6.4 fold	1.7 fold	46.8 nM	-7.33 log(M)
TFISDYSIAMDKIHQQDK(C16 diacid)VNWLLAQK-NH2 (N-terminus assumed; SMILES CC[C@H](C)[C@H](NC(=O)[C@H](CO)NC(=O)[C@H](Cc1ccc(O)cc1)NC(=O)[C@H](CC(=O)O)NC(=O)[C@H](CO)NC(=O)[C@@H](NC(=O)[C@H](Cc1ccccc1)NC(=O)[C@@H](N)[C@@H](C)O)[C@@H](C)CC)C(=O)N[C@@H](C)C(=O)N[C@@H](CCSC)C(=O)N[C@@H](CC(=O)O)C(=O)N[C@@H](CCCCN)C(=O)N[C@H](C(=O)N[C@@H](Cc1c[nH]cn1)C(=O)N[C@@H](CCC(N)=O)C(=O)N[C@@H](CCC(N)=O)C(=O)N[C@@H](CC(=O)O)C(=O)N[C@@H](CCCCNC(=O)CCCCCCCCCCCCCCC(=O)O)C(=O)N[C@H](C(=O)N[C@@H](CC(N)=O)C(=O)N[C@@H](Cc1c[nH]c2ccccc12)C(=O)N[C@@H](CC(C)C)C(=O)N[C@@H](CC(C)C)C(=O)N[C@@H](C)C(=O)N[C@@H](CCC(N)=O)C(=O)N[C@@H](CCCCN)C(N)=O)C(C)C)[C@@H](C)CC) [AT182 [hGIP(5-30)NH2[F22K]-C16diacid/22]]	841 nM	1190 nM	1.4 fold	21.9 fold	603 nM	-6.22 log(M)
TFISDYSIAMDKIHQQDFVK(C16 diacid)WLLAQK-NH2 (N-terminus assumed; SMILES CC[C@H](C)[C@H](NC(=O)[C@H](CO)NC(=O)[C@H](Cc1ccc(O)cc1)NC(=O)[C@H](CC(=O)O)NC(=O)[C@H](CO)NC(=O)[C@@H](NC(=O)[C@H](Cc1ccccc1)NC(=O)[C@@H](N)[C@@H](C)O)[C@@H](C)CC)C(=O)N[C@@H](C)C(=O)N[C@@H](CCSC)C(=O)N[C@@H](CC(=O)O)C(=O)N[C@@H](CCCCN)C(=O)N[C@H](C(=O)N[C@@H](Cc1c[nH]cn1)C(=O)N[C@@H](CCC(N)=O)C(=O)N[C@@H](CCC(N)=O)C(=O)N[C@@H](CC(=O)O)C(=O)N[C@@H](Cc1ccccc1)C(=O)N[C@H](C(=O)N[C@@H](CCCCNC(=O)CCCCCCCCCCCCCCC(=O)O)C(=O)N[C@@H](Cc1c[nH]c2ccccc12)C(=O)N[C@@H](CC(C)C)C(=O)N[C@@H](CC(C)C)C(=O)N[C@@H](C)C(=O)N[C@@H](CCC(N)=O)C(=O)N[C@@H](CCCCN)C(N)=O)C(C)C)[C@@H](C)CC) [AT184 [hGIP(5-30)NH2[N24K]-C16diacid/24]]	224 nM	871 nM	3.9 fold	3.9 fold	107 nM	-6.97 log(M)
TFISDYSIAMDKIHQQK(C16 diacid)FVNWLLAQK-NH2 (N-terminus assumed; SMILES CC[C@H](C)[C@H](NC(=O)[C@H](CO)NC(=O)[C@H](Cc1ccc(O)cc1)NC(=O)[C@H](CC(=O)O)NC(=O)[C@H](CO)NC(=O)[C@@H](NC(=O)[C@H](Cc1ccccc1)NC(=O)[C@@H](N)[C@@H](C)O)[C@@H](C)CC)C(=O)N[C@@H](C)C(=O)N[C@@H](CCSC)C(=O)N[C@@H](CC(=O)O)C(=O)N[C@@H](CCCCN)C(=O)N[C@H](C(=O)N[C@@H](Cc1c[nH]cn1)C(=O)N[C@@H](CCC(N)=O)C(=O)N[C@@H](CCC(N)=O)C(=O)N[C@@H](CCCCNC(=O)CCCCCCCCCCCCCCC(=O)O)C(=O)N[C@@H](Cc1ccccc1)C(=O)N[C@H](C(=O)N[C@@H](CC(N)=O)C(=O)N[C@@H](Cc1c[nH]c2ccccc12)C(=O)N[C@@H](CC(C)C)C(=O)N[C@@H](CC(C)C)C(=O)N[C@@H](C)C(=O)N[C@@H](CCC(N)=O)C(=O)N[C@@H](CCCCN)C(N)=O)C(C)C)[C@@H](C)CC) [AT181 [hGIP(5-30)NH2[D21K]-C16diacid/21]]	33.3 nM	120 nM	3.6 fold	0.5 fold	12.6 nM	-7.9 log(M)
TFISDYSIAMDKIHQQDFVNWK(C16 diacid)LAQK-NH2 (N-terminus assumed; SMILES CC[C@H](C)[C@H](NC(=O)[C@H](CO)NC(=O)[C@H](Cc1ccc(O)cc1)NC(=O)[C@H](CC(=O)O)NC(=O)[C@H](CO)NC(=O)[C@@H](NC(=O)[C@H](Cc1ccccc1)NC(=O)[C@@H](N)[C@@H](C)O)[C@@H](C)CC)C(=O)N[C@@H](C)C(=O)N[C@@H](CCSC)C(=O)N[C@@H](CC(=O)O)C(=O)N[C@@H](CCCCN)C(=O)N[C@H](C(=O)N[C@@H](Cc1c[nH]cn1)C(=O)N[C@@H](CCC(N)=O)C(=O)N[C@@H](CCC(N)=O)C(=O)N[C@@H](CC(=O)O)C(=O)N[C@@H](Cc1ccccc1)C(=O)N[C@H](C(=O)N[C@@H](CC(N)=O)C(=O)N[C@@H](Cc1c[nH]c2ccccc12)C(=O)N[C@@H](CCCCNC(=O)CCCCCCCCCCCCCCC(=O)O)C(=O)N[C@@H](CC(C)C)C(=O)N[C@@H](C)C(=O)N[C@@H](CCC(N)=O)C(=O)N[C@@H](CCCCN)C(N)=O)C(C)C)[C@@H](C)CC) [AT186 [hGIP(5-30)NH2[L26K]-C16diacid/26]]	105 nM	830 nM	7.9 fold	2.6 fold	70.8 nM	-7.15 log(M)
TFISDYSIAMDKIHQQDFVNK(C16 diacid)LLAQK-NH2 (N-terminus assumed; SMILES CC[C@H](C)[C@H](NC(=O)[C@H](CO)NC(=O)[C@H](Cc1ccc(O)cc1)NC(=O)[C@H](CC(=O)O)NC(=O)[C@H](CO)NC(=O)[C@@H](NC(=O)[C@H](Cc1ccccc1)NC(=O)[C@@H](N)[C@@H](C)O)[C@@H](C)CC)C(=O)N[C@@H](C)C(=O)N[C@@H](CCSC)C(=O)N[C@@H](CC(=O)O)C(=O)N[C@@H](CCCCN)C(=O)N[C@H](C(=O)N[C@@H](Cc1c[nH]cn1)C(=O)N[C@@H](CCC(N)=O)C(=O)N[C@@H](CCC(N)=O)C(=O)N[C@@H](CC(=O)O)C(=O)N[C@@H](Cc1ccccc1)C(=O)N[C@H](C(=O)N[C@@H](CC(N)=O)C(=O)N[C@@H](CCCCNC(=O)CCCCCCCCCCCCCCC(=O)O)C(=O)N[C@@H](CC(C)C)C(=O)N[C@@H](CC(C)C)C(=O)N[C@@H](C)C(=O)N[C@@H](CCC(N)=O)C(=O)N[C@@H](CCCCN)C(N)=O)C(C)C)[C@@H](C)CC) [AT185 [hGIP(5-30)NH2[W25K]-C16diacid/25]]	67.1 nM	336 nM	5 fold	2.4 fold	66.1 nM	-7.18 log(M)
TFISDYSIAMDKIHQQDFK(C16 diacid)NWLLAQK-NH2 (N-terminus assumed; SMILES CC[C@H](C)[C@H](NC(=O)[C@H](CO)NC(=O)[C@H](Cc1ccc(O)cc1)NC(=O)[C@H](CC(=O)O)NC(=O)[C@H](CO)NC(=O)[C@@H](NC(=O)[C@H](Cc1ccccc1)NC(=O)[C@@H](N)[C@@H](C)O)[C@@H](C)CC)C(=O)N[C@@H](C)C(=O)N[C@@H](CCSC)C(=O)N[C@@H](CC(=O)O)C(=O)N[C@@H](CCCCN)C(=O)N[C@H](C(=O)N[C@@H](Cc1c[nH]cn1)C(=O)N[C@@H](CCC(N)=O)C(=O)N[C@@H](CCC(N)=O)C(=O)N[C@@H](CC(=O)O)C(=O)N[C@@H](Cc1ccccc1)C(=O)N[C@@H](CCCCNC(=O)CCCCCCCCCCCCCCC(=O)O)C(=O)N[C@@H](CC(N)=O)C(=O)N[C@@H](Cc1c[nH]c2ccccc12)C(=O)N[C@@H](CC(C)C)C(=O)N[C@@H](CC(C)C)C(=O)N[C@@H](C)C(=O)N[C@@H](CCC(N)=O)C(=O)N[C@@H](CCCCN)C(N)=O)[C@@H](C)CC) [AT183 [hGIP(5-30)NH2[V23K]-C16diacid/23]]	5350 nM	23300 nM	4.4 fold	55 fold	1510 nM	-5.82 log(M)
